{
  "source": "paper PMC12669963",
  "about": "“PGAM5 cleavage and oligomerization equilibrates mitochondrial dynamics under stress by regulating DRP1 function” (Journal of Cell Science, 2025)",
  "target": "the molecule itself",
  "test": "native gel or EMSA; native-PAGE of U2OS lysates (50 mM Tris-HCl pH 7.4, 150 mM NaCl, 0.5% Triton X-100), steady state or CCCP, immunoblot for endogenous PGAM5",
  "data": [
    {"protein": "endogenous PGAM5 (natural protein, human (endogenous in HEK293 and U2OS), UniProt Q96HS1 1-289, looked up, endogenous PGAM5; source: endogenous, HEK293 and U2OS lysate) MAFRQALQLAACGLAGGSAAVLFSAVAVGKPRAGGDAEPRPAEPPAWAGGARPGPGVWDPNWDRREPLSLINVRKRNVESGEEELASKLDHYKAKATRHIFLIRHSQYHVDGSLEKDRTLTPLGREQAELTGLRLASLGLKFNKIVHSSMTRAIETTDIISRHLPGVCKVSTDLLREGAPIEPDPPVSHWKPEAVQYYEDGARIEAAFRNYIHRADARQEEDSYEIFICHANVIRYIVCRALQFPPEGWLRLSLNNGSITHLVIRPNGRVALRTLGDTGFMPPDKITRS", "values": [
      {"measurement": "stoichiometry N", "value": 2}
    ]}
  ]
}
